Bridge positions count the residues as written; N and C are the ends. Square brackets hold non-standard residues; d marks the D form. Ends that are not written are not given here. S5 = C=CCCC[C@](C)(N)C(=O)O
Tests used:
endogenous MCL-1 = assay: Biotinylated SAHB pulldown from MEF lysates, anti-MCL-1 Western analysis; format: binding, mouse; details: summary, pull-downs
Description: An exploratory proteomics analysis was conducted to identify proteins that interact with the MCL-1 BH3 domain helix. An extensive library of MCL-1 stapled BH3 peptides (FIG. 2) was generated to both identify novel protein interactors by mass spectrometry and then deploy the stapled peptide constructs as novel probes to dissect and pharmacologically modulate the identified protein interactors and associated signaling pathways. As an example, an N-terminally biotinylated stapled peptide designed based on the sequence of MCL-1's BH3 domain (Btn-MCL-1 SAHBD), or vehicle, was incubated with wild-type mouse embryonic fibroblast (MEF) lysates, followed by high stringency streptavidin capture. To validate the proteomics workflow and ensure that Btn-MCL-1 SAHBD could, in fact, engage protein interactors in a lysate, eluates were first run on a gel for anti-MCL-1 Western analysis. […] For mass spectrometry (MS) analysis, eluates were run on a reducing/denaturing gel followed by Coomassie staining (FIG. 4) and in-gel digestion was performed before injection on the instrument.
(§1) The binding determinants for the MCL-1 BH3/VLCAD interaction were investigated by generating a series of biotinylated MCL-1 SAHBD alanine point mutants (FIG. 18A) and performing streptavidin pull-downs from MEF lysates, followed by VLCAD and MCL-1 western analysis of the resulting eluates. […] Native alanines and residues not mutated are colored white.
Wild-type MEFs were trypsinized, washed once with cold PBS, and lysed on ice with NP-40 lysis buffer (50 mM Tris, pH 7.4, 150 mM NaCl, 0.5% (v/v) NP-40, complete protease inhibitor pellet (Roche)) using 1 ml of lysis buffer for every 10 million cells lysed. Cellular debris was pelleted at 14,000 g for 10 min at 4° C., and the supernatant was quantified using the BCA Protein Assay Kit (Thermo Fisher Scientific). 2 mg of lysate per pulldown were then exposed to 50 μL of pre-equilibrated High Capacity Streptavidin Agarose beads (Thermo Fisher Scientific). […] The beads were then pelleted and washed with NP-40 lysis buffer three times before eluting the protein sample from the beads by heating at 70° C. for 10 min in SDS loading buffer. Samples were then subjected to electrophoresis and either Western analysis or Coomassie stain (SimplyBlue Safe Stain, Thermo Fisher Scientific). […] Coomassie stained gels were then processed for proteomics analysis (see below). Biotinylated SAHB pulldowns of recombinant protein were performed as above incubating 5 nmol of SAHB with 10 pmol of rVLCAD in 500 μL total volume. Densitometry analyses were performed using ImageJ software.

native VLCAD = biological target: T1, native VLCAD (Mus musculus, UniProt P50544); assay: Biotinylated SAHB pulldown from MEF lysates, anti-VLCAD Western analysis; format: binding; details: for summary of binding properties: binding to VLCAD: pull-downs and ITC
T1 construct: As for native VLCAD from MEF lysates; endogenous in cells; host or cells: SV-40-transformed wild-type mouse embryonic fibroblasts (lysate)
T1 sequence (P50544 42-656): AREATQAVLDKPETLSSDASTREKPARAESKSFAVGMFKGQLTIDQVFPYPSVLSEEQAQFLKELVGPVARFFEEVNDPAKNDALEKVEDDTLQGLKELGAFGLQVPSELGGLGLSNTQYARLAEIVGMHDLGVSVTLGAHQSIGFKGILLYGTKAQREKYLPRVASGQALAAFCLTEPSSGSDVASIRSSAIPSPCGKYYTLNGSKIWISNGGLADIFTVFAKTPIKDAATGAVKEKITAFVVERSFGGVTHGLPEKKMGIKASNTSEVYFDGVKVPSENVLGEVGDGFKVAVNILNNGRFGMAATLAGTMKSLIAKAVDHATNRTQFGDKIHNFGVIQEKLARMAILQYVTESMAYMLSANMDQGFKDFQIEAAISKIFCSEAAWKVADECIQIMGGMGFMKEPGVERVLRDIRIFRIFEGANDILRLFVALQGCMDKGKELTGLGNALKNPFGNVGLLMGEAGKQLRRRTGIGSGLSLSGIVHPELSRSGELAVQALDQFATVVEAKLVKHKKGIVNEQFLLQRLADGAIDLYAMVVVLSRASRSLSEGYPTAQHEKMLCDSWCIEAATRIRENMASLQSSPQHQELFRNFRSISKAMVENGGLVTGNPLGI
Text: To validate the MS result, the pulldowns were repeated and eluates run on a gel for anti-VLCAD Western blot analysis. […] All peptides faithfully recapitulated native BH3-binding propensities for endogenous MCL-1 protein (FIG. 8). The eluates were then probed for the other members of the acyl-CoA dehydrogenase family that manifest shorter fatty acid substrate specificities. MCL-1 SAHBD was able to pull down VLCAD, but not MCAD or SCAD (FIG. 9). Because the traditional MCL-1 staple location differs from that of the BIM, BID, and BAD SAHBs, it was important to confirm that the observed VLCAD binding specificity was due to BH3 sequence selectivity, not staple position. A BIM SAHB with the traditional MCL-1 staple (BIM SAHBF), and a MCL-1 stapled peptide with the traditional BIM staple (MCL-1 SAHBA), were generated. […] To confirm that the selective interaction between MCL-1 SAHBD and VLCAD is direct, recombinant VLCAD was generated and purified by size exclusion chromatography (FIGS. 11 and 12).
as §1, with “white. The dotted semicircles highlight the distinctive MCL-1 BH3 binding interfaces for VLCAD versus MCL-1 engagement, as defined by the differential sensitivities to alanine mutagenesis.” for “white.”
Wild-type MEFs were trypsinized, washed once with cold PBS, and lysed on ice with NP-40 lysis buffer (50 mM Tris, pH 7.4, 150 mM NaCl, 0.5% (v/v) NP-40, complete protease inhibitor pellet (Roche)) using 1 ml of lysis buffer for every 10 million cells lysed. Cellular debris was pelleted at 14,000 g for 10 min at 4° C., and the supernatant was quantified using the BCA Protein Assay Kit (Thermo Fisher Scientific). 2 mg of lysate per pulldown were then exposed to 50 μL of pre-equilibrated High Capacity Streptavidin Agarose beads (Thermo Fisher Scientific). The pre-cleared lysates were then incubated with 15 nmol biotinylated SAHBs (or vehicle, 1.5% (v/v) DMSO) overnight at 4° C., followed by addition of 50 μL of pre-equilibrated High Capacity Streptavidin Agarose beads for 2 hours at 4° C. The beads were then pelleted and washed with NP-40 lysis buffer three times before eluting the protein sample from the beads by heating at 70° C. for 10 min in SDS loading buffer. Samples were then subjected to electrophoresis and either Western analysis or Coomassie stain (SimplyBlue Safe Stain, Thermo Fisher Scientific). The antibodies used for Western analysis were the following: MCL-1 (Rockland 600-401-394; 1:1000 in 3% BSA), VLCAD (Thermo Fisher Scientific PA5-29959; 1:1000 in 1% milk+0.1% Tween-20), MCAD (Thermo Fisher Scientific PA5-27201; 1:1000 in 3% BSA), and SCAD (Abcam ab154823; 1:1000 in 3% BSA). Coomassie stained gels were then processed for proteomics analysis (see below). Biotinylated SAHB pulldowns of recombinant protein were performed as above incubating 5 nmol of SAHB with 10 pmol of rVLCAD in 500 μL total volume. Densitometry analyses were performed using ImageJ software.

endogenous MCL-1, sequence (P97287 152-308 limits assumed): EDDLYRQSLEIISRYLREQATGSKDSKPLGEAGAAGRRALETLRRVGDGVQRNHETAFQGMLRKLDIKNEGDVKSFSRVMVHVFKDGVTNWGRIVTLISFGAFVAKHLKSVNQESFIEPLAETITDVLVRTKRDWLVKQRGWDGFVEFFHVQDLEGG

| summary of binding properties: binding to VLCAD (native VLCAD) | effect of alanine mutation on biotinylated MCL-1 SAHBD interaction with VLCAD (native VLCAD; pull-downs from MEF lysates) | Substance | summary of binding properties: binding to MCL-1 (endogenous MCL-1) |
| --- | --- | --- | --- |
| Binds |  | E211A: biotinylated MCL-1 SAHBD alanine point mutant E211A (RKALATLRRVGDGV[S5]RNH[S5]TAF; staple 15-19; also: biotinylated, place not given here) | Binds |
| Binds |  | G217A: biotinylated MCL-1 SAHBD alanine point mutant G217A (RKALETLRRVADGV[S5]RNH[S5]TAF; staple 15-19; also: biotinylated, place not given here) | weakly or not |
| Binds |  | G219A: biotinylated MCL-1 SAHBD alanine point mutant G219A (RKALETLRRVGDAV[S5]RNH[S5]TAF; staple 15-19; also: biotinylated, place not given here) | Binds |
| Does not bind |  | H224A: biotinylated MCL-1 SAHBD alanine point mutant H224A (RKALETLRRVGDGV[S5]RNA[S5]TAF; staple 15-19; also: biotinylated, place not given here) | Does not bind |
| enhanced binding |  | K208A: biotinylated MCL-1 SAHBD alanine point mutant K208A (RAALETLRRVGDGV[S5]RNH[S5]TAF; staple 15-19; also: biotinylated, place not given here) | diminished binding |
| weakly or not | uniquely disruptive | L210A: biotinylated MCL-1 SAHBD alanine point mutant L210A (RKAAETLRRVGDGV[S5]RNH[S5]TAF; staple 15-19; also: biotinylated, place not given here) | Binds |
| Binds |  | T212A: biotinylated MCL-1 SAHBD alanine point mutant T212A (RKALEALRRVGDGV[S5]RNH[S5]TAF; staple 15-19; also: biotinylated, place not given here) | weakly or not |
| diminished binding |  | T226A: biotinylated MCL-1 SAHBD alanine point mutant T226A (RKALETLRRVGDGV[S5]RNH[S5]AAF; staple 15-19; also: biotinylated, place not given here) | diminished binding |
| Binds |  | V216A: biotinylated MCL-1 SAHBD alanine point mutant V216A (RKALETLRRAGDGV[S5]RNH[S5]TAF; staple 15-19; also: biotinylated, place not given here) | weakly or not |
